Test results as given in PMC2804858.

Molecular target: Mcm2-7 hexamer (budding yeast (endogenous in yeast extract) | budding yeast) (UniProt P29469)
Experiment: negative-stain electron microscopy

In the case of “Mcm2-7 hexamer, P29469 1-868; P24279 1-971; P30665 1-933; P29496 1-775; P53091 1-1017; P38132 1-845”, the stoichiometry N is reported as 2 hexamers.
